Patent publication US20260176319A1 (KALLYOPE, published 2026)
Values belong to the binder of their own block, whether it stands above or below them. Starred links: 1 amine or outer side, 2 acyl side, 3 side chain; linkers in the order of their positions; H or OH if unused. Non-standard residues stand in square brackets, D forms with d. No end group written: not given here. *: point of attachment. Trp(7-Me) = Cc1cccc2c(C[C@H](N)C(=O)O)c[nH]c12; C20 diacid = O=C(O)CCCCCCCCCCCCCCCCCCC(=O)*; d(γGlu) = O=C(O)[C@@H](CCC(=O)[*:2])N[*:1]; C18 diacid = O=C(O)CCCCCCCCCCCCCCCCC(=O)*; γGlu = O=C(O)[C@H](CCC(=O)[*:2])N[*:1]; Palmitoyl = CCCCCCCCCCCCCCCC(=O)*; 3Pal = N[C@@H](Cc1cccnc1)C(=O)O; Nle = CCCC[C@H](N)C(=O)O; AEEA = NCCOCCOCC(=O)O; Aib = CC(C)(N)C(=O)O; βAla = NCCC(=O)O

Molecular target: human GRP receptor (human, UniProt P30550 1-384)
Assay: cell-based or functional assay

Sequence of human GRP receptor (P30550 whole entry): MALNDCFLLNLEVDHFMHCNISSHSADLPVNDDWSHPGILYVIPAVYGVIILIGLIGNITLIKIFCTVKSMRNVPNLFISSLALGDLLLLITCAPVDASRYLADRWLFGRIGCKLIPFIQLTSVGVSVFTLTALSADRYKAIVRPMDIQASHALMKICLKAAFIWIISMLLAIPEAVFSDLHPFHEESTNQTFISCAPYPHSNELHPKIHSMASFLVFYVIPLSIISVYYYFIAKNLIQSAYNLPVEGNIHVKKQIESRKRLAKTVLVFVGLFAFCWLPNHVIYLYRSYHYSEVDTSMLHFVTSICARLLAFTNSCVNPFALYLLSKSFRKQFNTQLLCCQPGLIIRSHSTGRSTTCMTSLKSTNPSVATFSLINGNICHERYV

B1: Peptide 245 (peptide)
peptide: {C20 diacid}-[γGlu][γGlu][AEEA][AEEA][dF]N[3Pal]WAV[βAla]HL[Nle]-NH2
SMILES: CCCC[C@H](NC(=O)[C@H](CC(C)C)NC(=O)[C@H](Cc1c[nH]cn1)NC(=O)CCNC(=O)[C@@H](NC(=O)[C@H](C)NC(=O)[C@H](Cc1c[nH]c2ccccc12)NC(=O)[C@H](Cc1cccnc1)NC(=O)[C@H](CC(N)=O)NC(=O)[C@@H](Cc1ccccc1)NC(=O)COCCOCCNC(=O)COCCOCCNC(=O)CC[C@H](NC(=O)CC[C@H](NC(=O)CCCCCCCCCCCCCCCCCCC(=O)O)C(=O)O)C(=O)O)C(C)C)C(N)=O
hIP1 GRPR EC50: 11.9 nM

Binder: {C20 diacid}-[γGlu][γGlu][AEEA][AEEA]GEH[Trp(7-Me)]AV[BABA]HL[Nle]-NH2 [Peptide 247]
hIP1 GRPR EC50: 1.8 nM

B2: Peptide 248 (peptide)
peptide: {C20 diacid}-[γGlu][γGlu][AEEA][AEEA]E[dS]EH[Trp(7-Me)]AV[βAla]HL[Nle]-NH2
SMILES: CCCC[C@H](NC(=O)[C@H](CC(C)C)NC(=O)[C@H](Cc1c[nH]cn1)NC(=O)CCNC(=O)[C@@H](NC(=O)[C@H](C)NC(=O)[C@H](Cc1c[nH]c2c(C)cccc12)NC(=O)[C@H](Cc1c[nH]cn1)NC(=O)[C@H](CCC(=O)O)NC(=O)[C@@H](CO)NC(=O)[C@H](CCC(=O)O)NC(=O)COCCOCCNC(=O)COCCOCCNC(=O)CC[C@H](NC(=O)CC[C@H](NC(=O)CCCCCCCCCCCCCCCCCCC(=O)O)C(=O)O)C(=O)O)C(C)C)C(N)=O
hIP1 GRPR EC50: 10.5 nM

B3: Peptide 241 (peptide)
peptide: {C20 diacid}-[γGlu][AEEA][AEEA]GQHWAV[βAla]HL[Nle]-NH2
SMILES: CCCC[C@H](NC(=O)[C@H](CC(C)C)NC(=O)[C@H](Cc1c[nH]cn1)NC(=O)CCNC(=O)[C@@H](NC(=O)[C@H](C)NC(=O)[C@H](Cc1c[nH]c2ccccc12)NC(=O)[C@H](Cc1c[nH]cn1)NC(=O)[C@H](CCC(N)=O)NC(=O)CNC(=O)COCCOCCNC(=O)COCCOCCNC(=O)CC[C@H](NC(=O)CCCCCCCCCCCCCCCCCCC(=O)O)C(=O)O)C(C)C)C(N)=O
hIP1 GRPR EC50: 2 nM

B4: Peptide 251 (peptide)
peptide: {C20 diacid}-[γGlu][γGlu][AEEA][AEEA]GQHWAV[βAla]HL[Nle]-NH2
SMILES: CCCC[C@H](NC(=O)[C@H](CC(C)C)NC(=O)[C@H](Cc1c[nH]cn1)NC(=O)CCNC(=O)[C@@H](NC(=O)[C@H](C)NC(=O)[C@H](Cc1c[nH]c2ccccc12)NC(=O)[C@H](Cc1c[nH]cn1)NC(=O)[C@H](CCC(N)=O)NC(=O)CNC(=O)COCCOCCNC(=O)COCCOCCNC(=O)CC[C@H](NC(=O)CC[C@H](NC(=O)CCCCCCCCCCCCCCCCCCC(=O)O)C(=O)O)C(=O)O)C(C)C)C(N)=O
hIP1 GRPR EC50: 4.4 nM

Binder: {C20 diacid}-[γGlu]GNHWAV[dA]HL[Nle] [Peptide 164]
hIP1 GRPR EC50: 125 nM

B7: Peptide 159 (peptide)
peptide: {C18 diacid}-[γGlu][AEEA][AEEA]GNHWAV[dA][dH]L[Nle]-NH2
SMILES: CCCC[C@H](NC(=O)[C@H](CC(C)C)NC(=O)[C@@H](Cc1c[nH]cn1)NC(=O)[C@@H](C)NC(=O)[C@@H](NC(=O)[C@H](C)NC(=O)[C@H](Cc1c[nH]c2ccccc12)NC(=O)[C@H](Cc1c[nH]cn1)NC(=O)[C@H](CC(N)=O)NC(=O)CNC(=O)COCCOCCNC(=O)COCCOCCNC(=O)CC[C@H](NC(=O)CCCCCCCCCCCCCCCCC(=O)O)C(=O)O)C(C)C)C(N)=O
hIP1 GRPR EC50: 101 nM

B11: Peptide 244 (peptide)
peptide: {C20 diacid}-[γGlu][γGlu][AEEA][AEEA]GRHWAV[dA]HL[Nle]-NH2
SMILES: CCCC[C@H](NC(=O)[C@H](CC(C)C)NC(=O)[C@H](Cc1c[nH]cn1)NC(=O)[C@@H](C)NC(=O)[C@@H](NC(=O)[C@H](C)NC(=O)[C@H](Cc1c[nH]c2ccccc12)NC(=O)[C@H](Cc1c[nH]cn1)NC(=O)[C@H](CCCNC(=N)N)NC(=O)CNC(=O)COCCOCCNC(=O)COCCOCCNC(=O)CC[C@H](NC(=O)CC[C@H](NC(=O)CCCCCCCCCCCCCCCCCCC(=O)O)C(=O)O)C(=O)O)C(C)C)C(N)=O
hIP1 GRPR EC50: 2.8 nM

B13: Peptide 243 (peptide)
peptide: {C18 diacid}-[γGlu][γGlu][AEEA][AEEA]GRHWAV[βAla]HL[Nle]-NH2
SMILES: CCCC[C@H](NC(=O)[C@H](CC(C)C)NC(=O)[C@H](Cc1c[nH]cn1)NC(=O)CCNC(=O)[C@@H](NC(=O)[C@H](C)NC(=O)[C@H](Cc1c[nH]c2ccccc12)NC(=O)[C@H](Cc1c[nH]cn1)NC(=O)[C@H](CCCNC(=N)N)NC(=O)CNC(=O)COCCOCCNC(=O)COCCOCCNC(=O)CC[C@H](NC(=O)CC[C@H](NC(=O)CCCCCCCCCCCCCCCCC(=O)O)C(=O)O)C(=O)O)C(C)C)C(N)=O
hIP1 GRPR EC50: 3.6 nM

Second part, the binder after the results:

hIP1 GRPR EC50: 31.5 nM
B5: Peptide 160 (peptide)
peptide: {C20 diacid}-[γGlu]GNHWAV[dA][dH]L[Nle]-NH2
SMILES: CCCC[C@H](NC(=O)[C@H](CC(C)C)NC(=O)[C@@H](Cc1c[nH]cn1)NC(=O)[C@@H](C)NC(=O)[C@@H](NC(=O)[C@H](C)NC(=O)[C@H](Cc1c[nH]c2ccccc12)NC(=O)[C@H](Cc1c[nH]cn1)NC(=O)[C@H](CC(N)=O)NC(=O)CNC(=O)CC[C@H](NC(=O)CCCCCCCCCCCCCCCCCCC(=O)O)C(=O)O)C(C)C)C(N)=O

hIP1 GRPR EC50: 1.08 nM
B6: Peptide 13 (peptide)
peptide: Palmitoyl-[d(γGlu)][AEEA][AEEA]GNH[Trp(7-Me)]AV[dA]HL[Nle]-NH2
SMILES: CCCCCCCCCCCCCCCC(=O)N[C@H](CCC(=O)NCCOCCOCC(=O)NCCOCCOCC(=O)NCC(=O)N[C@@H](CC(N)=O)C(=O)N[C@@H](Cc1c[nH]cn1)C(=O)N[C@@H](Cc1c[nH]c2c(C)cccc12)C(=O)N[C@@H](C)C(=O)N[C@H](C(=O)N[C@H](C)C(=O)N[C@@H](Cc1c[nH]cn1)C(=O)N[C@@H](CC(C)C)C(=O)N[C@@H](CCCC)C(N)=O)C(C)C)C(=O)O

hIP1 GRPR EC50: 248 nM
Binder: {C18 diacid}-[γGlu][AEEA][AEEA]GRHWAV[dA]HL[Nle] [Peptide 166]

hIP1 GRPR EC50: 7.5 nM
B8: Peptide 252 (peptide)
peptide: {C20 diacid}-[γGlu][γGlu][AEEA][AEEA]EGRH[Trp(7-Me)]AV[βAla]HL[Nle]-NH2
SMILES: CCCC[C@H](NC(=O)[C@H](CC(C)C)NC(=O)[C@H](Cc1c[nH]cn1)NC(=O)CCNC(=O)[C@@H](NC(=O)[C@H](C)NC(=O)[C@H](Cc1c[nH]c2c(C)cccc12)NC(=O)[C@H](Cc1c[nH]cn1)NC(=O)[C@H](CCCNC(=N)N)NC(=O)CNC(=O)[C@H](CCC(=O)O)NC(=O)COCCOCCNC(=O)COCCOCCNC(=O)CC[C@H](NC(=O)CC[C@H](NC(=O)CCCCCCCCCCCCCCCCCCC(=O)O)C(=O)O)C(=O)O)C(C)C)C(N)=O

hIP1 GRPR EC50: 1.55 nM
B9: Peptide 165 (peptide)
peptide: {C20 diacid}-[γGlu]GQHWAV[dA]HL[Nle]-NH2
SMILES: CCCC[C@H](NC(=O)[C@H](CC(C)C)NC(=O)[C@H](Cc1c[nH]cn1)NC(=O)[C@@H](C)NC(=O)[C@@H](NC(=O)[C@H](C)NC(=O)[C@H](Cc1c[nH]c2ccccc12)NC(=O)[C@H](Cc1c[nH]cn1)NC(=O)[C@H](CCC(N)=O)NC(=O)CNC(=O)CC[C@H](NC(=O)CCCCCCCCCCCCCCCCCCC(=O)O)C(=O)O)C(C)C)C(N)=O

hIP1 GRPR EC50: 21.4 nM
B10: Peptide 161 (peptide)
peptide: {C18 diacid}-[γGlu][AEEA][AEEA][dF]QHWAV[dA]HL[Nle]-NH2
SMILES: CCCC[C@H](NC(=O)[C@H](CC(C)C)NC(=O)[C@H](Cc1c[nH]cn1)NC(=O)[C@@H](C)NC(=O)[C@@H](NC(=O)[C@H](C)NC(=O)[C@H](Cc1c[nH]c2ccccc12)NC(=O)[C@H](Cc1c[nH]cn1)NC(=O)[C@H](CCC(N)=O)NC(=O)[C@@H](Cc1ccccc1)NC(=O)COCCOCCNC(=O)COCCOCCNC(=O)CC[C@H](NC(=O)CCCCCCCCCCCCCCCCC(=O)O)C(=O)O)C(C)C)C(N)=O

hIP1 GRPR EC50: 88.5 nM
Binder: {C20 diacid}-[γGlu]RRHWAV[dA]HL[Nle] [Peptide 163]

hIP1 GRPR EC50: 3.9 nM
B12: Peptide 242 (peptide)
peptide: {C20 diacid}-[γGlu][AEEA][AEEA]GRH[Trp(7-Me)]AV[βAla]HL[Nle]-NH2
SMILES: CCCC[C@H](NC(=O)[C@H](CC(C)C)NC(=O)[C@H](Cc1c[nH]cn1)NC(=O)CCNC(=O)[C@@H](NC(=O)[C@H](C)NC(=O)[C@H](Cc1c[nH]c2c(C)cccc12)NC(=O)[C@H](Cc1c[nH]cn1)NC(=O)[C@H](CCCNC(=N)N)NC(=O)CNC(=O)COCCOCCNC(=O)COCCOCCNC(=O)CC[C@H](NC(=O)CCCCCCCCCCCCCCCCCCC(=O)O)C(=O)O)C(C)C)C(N)=O

hIP1 GRPR EC50: 114 nM
Binder: {C20 diacid}-[γGlu][AEEA][AEEA]GRHWAV[dA]HL[Nle] [Peptide 167]

hIP1 GRPR EC50: 19.6 nM
Binder: {C20 diacid}-[γGlu]GRHWAV[dA]HL[Nle] [Peptide 162]

hIP1 GRPR EC50: 11.9 nM
Binder: EEXXGNHWAVGHLX (Palmitoyl-γGlu-γGlu-OEG-OEG-Gly-Asn-His-Trp-Ala-Val-Gly-His-Leu-Nle-NH2) [Peptide 240]

hIP1 GRPR EC50: 10.8 nM
B14: Peptide 14 (peptide)
peptide: Palmitoyl-[d(γGlu)][AEEA][AEEA]GNH[Trp(7-Me)][Aib]V[dA]HL[Nle]-NH2
SMILES: CCCCCCCCCCCCCCCC(=O)N[C@H](CCC(=O)NCCOCCOCC(=O)NCCOCCOCC(=O)NCC(=O)N[C@@H](CC(N)=O)C(=O)N[C@@H](Cc1c[nH]cn1)C(=O)N[C@@H](Cc1c[nH]c2c(C)cccc12)C(=O)NC(C)(C)C(=O)N[C@H](C(=O)N[C@H](C)C(=O)N[C@@H](Cc1c[nH]cn1)C(=O)N[C@@H](CC(C)C)C(=O)N[C@@H](CCCC)C(N)=O)C(C)C)C(=O)O
